Data on two molecules can be found in paper PMC4130638, “Structure of a Stapled Peptide Antagonist Bound to Nutlin-Resistant Mdm2” (PLoS ONE, 2014).

Positions of bridges follow the written chain, without caps; N, C: chain ends. Non-standard residues stand in square brackets, D forms with d. S8 = C=CCCCCCC[C@](C)(N)C(=O)O; S5 = C=CCCC[C@](C)(N)C(=O)O; FAM = carboxyfluorescein

The target of test [1] is T1, Mdm2 (amino acids 6-125), wild type (UniProt Q00987 6-125).
T1 construct: Cloned in pGEX-6P-1; also called Mdm2 (6-125); wild-type Mdm2; source: E. coli BL21(DE3) pLysS, purified (GSTrap, on-column PreScission cleavage, Resource S cation exchange)
Put plainly: fluorescence polarisation; competitive fluorescence anisotropy: M06 titrated against a constant 150 nM Mdm2 (6-125) wild type or M62A and 50 nM FAM-12-1 peptide; PBS pH 7.4, 3% DMSO, 0.1% Tween-20; apparent Kd; 3-5 titrations. Particulars: both partners purified.

In test [2] the target is T2, Mdm2-M62A (amino acids 6-125) (UniProt Q00987 6-125, M62A).
T2 construct: Made from the wild-type pGEX-6P-1 construct by QuickChange mutagenesis; also called Nutlin-resistant Mdm2; mutant Mdm2 (6-125); source: E. coli BL21(DE3) pLysS, purified (GSTrap, on-column PreScission cleavage, Resource S cation exchange)
The test is described as above. Particulars: both partners purified.

Test [3] addresses T1, Mdm2 (amino acids 6-125), wild type. Put plainly: not stated; Kds told in the discussion of the structures without method, construct or citation.

B1: carboxyfluorescein (FAM) labelled 12-1 peptide (peptide)
peptide: {FAM}-RFMDYWEGL-NH2
notes: 12-1 peptide, tracer of the fluorescence anisotropy assay
For the molecule B1, the binding result in test [1] and in test [2] was “binds” throughout.

B2: M06 stapled peptide (peptide)
chain: Ac-TSF[S5]EYWYLL[S8]-NH2
modifications: staple 4-11
SMILES: CC(=O)N[C@H](C(=O)N[C@@H](CO)C(=O)N[C@@H](Cc1ccccc1)C(=O)N[C@@]1(C)CCCC=CCCCCCC[C@@](C)(C(N)=O)NC(=O)[C@H](CC(C)C)NC(=O)[C@H](CC(C)C)NC(=O)[C@H](Cc2ccc(O)cc2)NC(=O)[C@H](Cc2c[nH]c3ccccc23)NC(=O)[C@H](Cc2ccc(O)cc2)NC(=O)[C@H](CCC(=O)O)NC1=O)[C@@H](C)O
Regarding B2, the Kd came to 128 nM in test [3], 107 ± 47.9 nM in test [1] and 63.1 ± 17.8 nM in test [2].
